This note sets out measurements from article PMC9603416.

The data set deals with T1, RR07-6xHis (Streptococcus pneumoniae R6) (UniProt Q8DRF5).
T1 sequence: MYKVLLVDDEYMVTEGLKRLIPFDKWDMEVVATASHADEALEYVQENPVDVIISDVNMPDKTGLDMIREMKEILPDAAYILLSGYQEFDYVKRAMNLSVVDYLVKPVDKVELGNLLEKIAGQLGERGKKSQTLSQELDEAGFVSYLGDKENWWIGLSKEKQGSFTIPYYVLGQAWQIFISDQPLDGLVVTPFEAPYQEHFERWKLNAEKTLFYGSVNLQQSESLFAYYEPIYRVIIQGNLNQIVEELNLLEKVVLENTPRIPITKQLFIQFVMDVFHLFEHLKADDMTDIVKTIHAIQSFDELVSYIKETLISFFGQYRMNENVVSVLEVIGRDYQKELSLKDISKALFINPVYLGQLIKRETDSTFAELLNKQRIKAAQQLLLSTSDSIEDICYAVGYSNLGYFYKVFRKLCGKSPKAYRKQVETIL
Description: EMSA. As to conditions: EMSA: 1 nM dsDNA probe, increasing RR07, binding buffer 20 mM Tris-Cl (rest of the buffer, pH and temperature not in the material). (Mobility shift assays separate free from complexed probe on a gel.)

Take “CACTGGTCTGGGGCACAAAGTAATTCATCCCAAAAGGCACGCCTGTGTATGGCAGGGTATTTCCCCGAGAGAAGGCATGCTTGCTAGCAGTACCAAAGCGGGTATCGATGGTTTCAAGTAGTGGTTTCATAGTCTTTCCTTTAGCTGTTTTTCTACATTATATCAGAAAAAGAGGGCCTTTAGAAAAGGAGTTTTAAAGATAACTATTTTGTAGAAAAATGACTATCATTTGTGTATGTATTTTCTGTCTCAAAAGCTATATACTGAACATGAAACTTGTTTGAAAGAGGGAATTGCACG (double strand) [Pgh125]”: the binding result is given as “no binding”.
Regarding “TGCAAAACCTCCTGATTGCATTGTTATATTGATAGCGATTATATAAATCAACGCCTTTATTTTATTTCTTATATTAACGAGAGTCAAGAGGAGATGACAAAAAACTATAATAAGTATAAAAAAATATAAAATTTAAACTTAAGATTTCAGATTGGTCGAAAAAATACATATATATATCTAGTATAATTTTTGGTTCTATTTCTATAAAATATTCCACAAATTATAGAATCTTCCAAAAATAGGTAAGCGCTACCTTTTTGGTGTGGTATAATAAGC (double strand) [PstrH]”, the binding entry was “no binding”.
